Laboratory results reported in patent publication US9395368B2, “Methods, agents and peptides for inducing an immune response to matrix metalloproteinase-2 expressing tumors” (New York University, priority 2010, dated 2016).

Tested on: CD4+ T cells from healthy donors
Experiment: CD4+ T cells stimulated with autologous DCs loaded with whole MMP-2 protein, response to peptide pool
Type: cell-based, human
Conditions: DCs incubated with MMP-2 protein (10 μM), 12 days
Procedure: (A) MMP-2-specific CD4^+ T cell clones were generated and characterized as described in Experimental Procedures. Clone HD9828/52 is shown as a representative example. Epitope specificities were assessed after overnight stimulation with individual peptides (2 μM). IFNγ, TNFα and IL-4 release was measured by ELISA. (B) All MMP-2-specific CD4^+ T cell clones were characterized by staining for CD4, CD8 and TCR Vβ chain expression. Clone HD9828/52 is shown as a representative example. (C) To establish HLA class-II isotype restriction, CD4^+ T cell clones were stimulated by corresponding peptides in the absence or presence of blocking mAb (10 μg/mL) for HLA-DP, HLA-DQ or HLA-DR and IFNγ release was measured by ELISA. (D) Purified CD4^+/CD25^− cells were stimulated for 12 days by autologous DCs incubated with MMP-2 protein (10 μM) and subsequently washed. MMP-2-specific CD4^+ T cells were detected by intracellular staining of IFNγ, TNFα and IL-4 after 6 hours of stimulation with MMP-2 peptide pool (2 μM). Numbers in the upper right quadrants are the percentages of each population.
T Cell culture, stimulation and priming. Peripheral blood mononuclear cells (PBMCs) were purified from healthy donor-(HD) or cord blood donor-(CB) derived buffy coats (New York Blood Center) by Ficoll-Paque Plus (GE Healthcare) centrifugation. CD4^+/CD25^− cells were enriched (>90%) by magnetic cell sorting (Miltenyi Biotec) and primed/stimulated for 12-15 days either with irradiated (35Gy) autologous CD4^− cells or with autologous mature DCs in IMDM (GIBCO) supplemented with 1 mM HEPES (Life Technologies), 2 mM L-glutamine (Sigma), […] (Sigma) and 5% heat inactivated pooled human serum (PHS; Valley Biomedical) in the presence of rhIL-2 (10 UI/mL) and IL7 (5 ng/mL) (R&D Systems). Antigen presenting cells (CD4^− cells or DCs) were loaded either with peptides (2 μM) or with the MMP-2 protein (10 μg/mL) for 2 and 5 h, respectively. DCs were matured using the TLR3 agonist poly(I:C) at 5 μg/mL/10^6 DCs (Amersham). To generate T cell clones, we originally relied on our published methodology (Godefroy et al., 2006; Godefroy et al., 2007; the entire contents of each of which is incorporated herein by reference), involving enrichment of IFNγ-secreting cells upon short-term culture and peptide stimulation to generate MMP-2 responsive clones. Briefly, CD4^+ T cells were stimulated by CD4^− cells irradiated and pulsed with peptides for 12 days in the presence of rhIL-2 and rhIL-7. CD4^+ T cells were then restimulated with peptides for 3 hours before capturing IFNγ-secreting specific cells using a bispecific antibody coating T cells and capturing produced IFNγ. […]
Intracellular staining T-bet and GATA-3 expression was measured on resting T cells. […]

B1: active MMP-2: Purified human MMP-2 (mixture of the proenzyme (50%) and the active form (50%)) purchased from Biomol (protein, listed as Homo sapiens)
chain: MEALMARGALTGPLRALCLLGCLLSHAAAAPSPIIKFPGDVAPKTDKELAVQYLNTFYGCPKESCNLFVLKDTLKKMQKFFGLPQTGDLDQNTIETMRKPRCGNPDVANYNFFPRKPKWDKNQITYRIIGYTPDLDPETVDDAFARAFQVWSDVTPLRFSRIHDGEADIMINFGRWEHGDGYPFDGKDGLLAHAFAPGTGVGGDSHFDDDELWTLGEGQVVRVKYGNADGEYCKFPFLFNGKEYNSCTDTGRSDGFLWCSTTYNFEKDGKYGFCPHEALFTMGGNAEGQPCKFPFRFQGTSYDSCTTEGRTDGYRWCGTTEDYDRDKKYGFCPETAMSTVGGNSEGAPCVFPFTFLGNKYESCTSAGRSDGKMWCATTANYDDDRKWGFCPDQGYSLFLVAAHEFGHAMGLEHSQDPGALMAPIYTYTKNFRLSQDDIKGIQELYGASPDIDLGTGPTPTLGPVTPEICKQDIVFDGIAQIRGEIFFFKDRFIWRTVTPRDKPMGPLLVATFWPELPEKIDAVYEAPQEEKAVFFAGNEYWIYSASTLERGYPKPLTSLGLPPDVQRVDAAFNWSKNKKTYIFAGDKFWRYNEVKKKMDPGFPKLIADAWNAIPDNLDAVVDLQGGGHSYFFKGAYYLKLENQSLKSVKFGSIKSDWLGC
Donor HD6026
  cells secreting IFNγ: 0.12%
  cells secreting IL-4: 0.73%
Donor HD6028
  cells secreting IFNγ: 0.17%
  cells secreting IL-4: 1.99%
